Experimental data taken from patent publication US20240270857A1 (CHIA TAI TIANQING PHARMACEUTICAL GROUP, published 2024).
Like-named read-outs stand apart in the source and are kept apart here.

T1: Human IL-1Rrp2/IL-1R6 protein, His Tag (ACROBiosystems, IL2-H52H6) (human, UniProt Q9HB29 20-335)
T1 construct: Bought protein; the soluble protein is likely only the extracellular part; also called hIL-36R; human IL36R antigen; not shown: His tag
T1 sequence: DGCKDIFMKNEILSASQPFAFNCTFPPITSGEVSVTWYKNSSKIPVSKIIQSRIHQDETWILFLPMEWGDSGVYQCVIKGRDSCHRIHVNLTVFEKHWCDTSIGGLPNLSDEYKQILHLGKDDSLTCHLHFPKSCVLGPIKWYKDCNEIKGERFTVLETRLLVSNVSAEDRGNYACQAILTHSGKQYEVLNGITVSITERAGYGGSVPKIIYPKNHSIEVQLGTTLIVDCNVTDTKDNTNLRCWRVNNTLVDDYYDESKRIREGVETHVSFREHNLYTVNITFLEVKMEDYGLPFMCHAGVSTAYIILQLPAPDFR

T2: human IL-36R overexpressed on 293T-hIL36R-NFκB cells (human, UniProt Q9HB29 20-575)
T2 construct: Entry includes the signal peptide; also called IL1RL2; IL-1Rrp2
T2 sequence: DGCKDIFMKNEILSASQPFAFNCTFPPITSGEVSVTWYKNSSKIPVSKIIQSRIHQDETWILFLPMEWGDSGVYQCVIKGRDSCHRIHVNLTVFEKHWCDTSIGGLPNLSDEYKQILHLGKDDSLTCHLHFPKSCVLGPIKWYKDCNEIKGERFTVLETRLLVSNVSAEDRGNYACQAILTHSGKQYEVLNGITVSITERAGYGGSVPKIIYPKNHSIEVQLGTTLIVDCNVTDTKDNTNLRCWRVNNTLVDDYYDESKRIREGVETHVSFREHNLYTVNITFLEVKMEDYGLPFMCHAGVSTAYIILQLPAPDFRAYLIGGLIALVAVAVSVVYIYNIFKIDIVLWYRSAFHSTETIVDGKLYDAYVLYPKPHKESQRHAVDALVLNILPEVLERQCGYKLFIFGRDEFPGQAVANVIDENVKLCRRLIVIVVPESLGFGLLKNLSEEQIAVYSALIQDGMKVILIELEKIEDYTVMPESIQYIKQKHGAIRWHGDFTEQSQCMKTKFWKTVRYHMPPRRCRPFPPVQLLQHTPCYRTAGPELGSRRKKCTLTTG

T3: cynomolgus IL-36R overexpressed on 293T-CynoIL36R-NFκB cells (cynomolgus monkey)
T3 construct: Entry includes the signal peptide; also called monkey IL-36R
T3 chain: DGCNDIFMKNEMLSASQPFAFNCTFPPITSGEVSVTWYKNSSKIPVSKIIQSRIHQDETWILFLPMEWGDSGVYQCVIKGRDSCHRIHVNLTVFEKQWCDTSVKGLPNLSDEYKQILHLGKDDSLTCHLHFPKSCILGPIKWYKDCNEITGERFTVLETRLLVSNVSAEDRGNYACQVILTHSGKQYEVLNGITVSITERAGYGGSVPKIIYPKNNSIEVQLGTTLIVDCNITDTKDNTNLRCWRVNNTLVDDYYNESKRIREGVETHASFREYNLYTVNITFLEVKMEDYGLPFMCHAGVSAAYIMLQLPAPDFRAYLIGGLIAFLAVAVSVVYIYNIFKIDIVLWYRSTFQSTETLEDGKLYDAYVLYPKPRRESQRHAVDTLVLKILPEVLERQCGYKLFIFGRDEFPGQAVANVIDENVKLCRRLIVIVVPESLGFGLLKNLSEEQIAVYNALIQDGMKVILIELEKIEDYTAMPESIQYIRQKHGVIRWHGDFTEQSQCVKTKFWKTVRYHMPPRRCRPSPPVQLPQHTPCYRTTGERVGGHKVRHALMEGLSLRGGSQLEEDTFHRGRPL


Columns and labels:
[1] = biological target: T1, Human IL-1Rrp2/IL-1R6 protein, His Tag …; test: BLI (ForteBio Octet), antibody on ProA sensor, 1:1 model
Method: The affinity of anti-IL-36R antibodies to CynoIL36R-ECD mFc and human IL-1Rrp2/IL-IR6 protein, His Tag (ACROBiosystems, IL2-H52H6) was measured by a ForteBio molecular interaction instrument. […] And then the biosensor was used to bind CynoIL36R-ECD mFc or human IL-1Rrp2/IL-1R6 protein, His Tag which was diluted by a gradient (the initial concentration was 200 nM, 2-fold gradient dilution), the response signals were detected in real time using a Fortebio molecular interaction instrument (SARTORIUS, octet red 96e), and association and dissociation curves were obtained. After the completion of dissociation in each cycle, the biosensor was regenerated for the next capture; the procedure was repeated until the affinity of the different anti-IL-36R antibodies for IL-36R was determined. The resulting data were analyzed by Fortebio Data Analysis 11.0 software in a 1:1 (Langmuir) binding model to determine kₐ (kₒₙ) and kd (koff) values, and the dissociation constant KD was calculated by KD=kd/kₐ. The detection method essentially followed the manufacturer's recommendations, and more information could be found at www.fortebio.com.
(§1) Affinity, binding and blocking assays for humanized antibodies hz72C1-1.1, hz72C1-1.2, hz72C1-1.3, hz72C1-2.1, hz72C1-2.2 and hz72C1-2.3 as well as hz84C4-1.1, hz84C4-1.2, hz84C4-1.3, hz84C4-1.4, hz84C4-1.5, hz84C4-2.1, hz84C4-2.2, hz84C4-2.3, hz84C4-2.4 and hz84C4-2.5 were performed according to the methods of Example 4, Example 5. Example 6, Example 7 and Example 8.

[2] = biological target: T2, human IL-36R overexpressed on …; test: FACS on 293T-hIL36R-NFκB cells, ratio of MFI to background MFI
Method: (§2) After the cells was washed with PBS, the cells were resuspended with 100 μL of PBS and then the fluorescence signal was detected using a flow cytometer (BD, Accuri C6). […] The ratio was the ratio of mean fluorescence intensity (MFI) of the experimental group/the background MFI, and the resulting data were analyzed using GraphPad Prism.
as §1

[3] = biological target: T3, cynomolgus IL-36R overexpressed on …; test: FACS on 293T-CynoIL36R-NFκB cells, ratio of MFI to background MFI
Method: as §2, §1

[4] = biological target: T2, human IL-36R overexpressed on …; test: FACS on 293T-hIL36R-NFκB cells, ratio of MFI to background MFI; remark: listed apart in the source
Method: as §2, §1

Kd [1] [nM]	koff [1] [s⁻¹]	kon [1] [M⁻¹ s⁻¹]	EC50 [2] [nM]	EC50 [3] [nM]	EC50 [4] [nM]	Binder
0.16	1.81e-05	113000	11.6			hz72C1-1.1 (antibody, human IgG4 S228P, kappa, Humanized, human IgG4 / kappa; also called humanized 72C1 antibody 1.1) heavy: not shown light: DIQMTQSPSSLSASVGDRVTITCRASSNVRYMYWYQQKPGKAPKLWIYLTSNLASGVPSRFSGSGSGTSYTLTISSLQPEDFATYYCQQFTTSPYTFGQGTKLEIKRTVAAPSVFIFPPSDEQLKSGTASVVCLLNNFYPREAKVQWKVDNALQSGNSQESVTEQDSKDSTYSLSSTLTLSKADYEKHKVYACEVTHQGLSSPVTKSFNRGEC
< 0.001	< 1e-07	62400	17.6			hz72C1-2.2 (antibody, human IgG4 S228P, kappa, Humanized, human IgG4 / kappa) heavy: not shown light: DIQMTQSPSSLSASVGDRVTITCRASSNVRYMYWYQQKPGKAPKLWIYLTSNLASGVPSRFSGSGSGTSYTLTISSLQPEDFATYYCQQYTTSPYTFGQGTKLEIKRTVAAPSVFIFPPSDEQLKSGTASVVCLLNNFYPREAKVQWKVDNALQSGNSQESVTEQDSKDSTYSLSSTLTLSKADYEKHKVYACEVTHQGLSSPVTKSFNRGEC
0.0111	7.81e-07	70400	19.3			hz72C1-2.1 (antibody, human IgG4 S228P, kappa, Humanized, human IgG4 / kappa) heavy: not shown light: DIQMTQSPSSLSASVGDRVTITCRASSNVRYMYWYQQKPGKAPKLWIYLTSNLASGVPSRFSGSGSGTSYTLTISSLQPEDFATYYCQQYTTSPYTFGQGTKLEIKRTVAAPSVFIFPPSDEQLKSGTASVVCLLNNFYPREAKVQWKVDNALQSGNSQESVTEQDSKDSTYSLSSTLTLSKADYEKHKVYACEVTHQGLSSPVTKSFNRGEC
0.177	1.12e-05	63300	20.2			hz72C1-2.3 (antibody, human IgG4 S228P, kappa, Humanized, human IgG4 / kappa) heavy: not shown light: DIQMTQSPSSLSASVGDRVTITCRASSNVRYMYWYQQKPGKAPKLWIYLTSNLASGVPSRFSGSGSGTSYTLTISSLQPEDFATYYCQQYTTSPYTFGQGTKLEIKRTVAAPSVFIFPPSDEQLKSGTASVVCLLNNFYPREAKVQWKVDNALQSGNSQESVTEQDSKDSTYSLSSTLTLSKADYEKHKVYACEVTHQGLSSPVTKSFNRGEC
0.0743	8.8e-06	119000	11.9			hz72C1-1.3 (antibody, human IgG4 S228P, kappa, Humanized, human IgG4 / kappa) heavy: not shown light: DIQMTQSPSSLSASVGDRVTITCRASSNVRYMYWYQQKPGKAPKLWIYLTSNLASGVPSRFSGSGSGTSYTLTISSLQPEDFATYYCQQFTTSPYTFGQGTKLEIKRTVAAPSVFIFPPSDEQLKSGTASVVCLLNNFYPREAKVQWKVDNALQSGNSQESVTEQDSKDSTYSLSSTLTLSKADYEKHKVYACEVTHQGLSSPVTKSFNRGEC
0.245	1.57e-05	64100	5.13	7.64	9.82	BI655130 (antibody, human IgG1, kappa, L234A L235A, also called Spesolimab) heavy: not shown light: QIVLTQSPGTLSLSPGERATMTCTASSSVSSSYFHWYQQKPGQAPRLWIYRTSRLASGVPDRFSGSGSGTDFTLTISRLEPEDAATYYCHQFHRSPLTFGAGTKLEIKRTVAAPSVFIFPPSDEQLKSGTASVVCLLNNFYPREAKVQWKVDNALQSGNSQESVTEQDSKDSTYSLSSTLTLSKADYEKHKVYACEVTHQGLSSPVTKSFNRGEC
